Source: patent US20050288217A1

Molecular target: αVβ3 integrin (UniProt P06756)
Test: binding to αVβ3, against the unsubstituted sequence

Chain of αVβ3 integrin (P06756 31-1048, chain 1 of 2): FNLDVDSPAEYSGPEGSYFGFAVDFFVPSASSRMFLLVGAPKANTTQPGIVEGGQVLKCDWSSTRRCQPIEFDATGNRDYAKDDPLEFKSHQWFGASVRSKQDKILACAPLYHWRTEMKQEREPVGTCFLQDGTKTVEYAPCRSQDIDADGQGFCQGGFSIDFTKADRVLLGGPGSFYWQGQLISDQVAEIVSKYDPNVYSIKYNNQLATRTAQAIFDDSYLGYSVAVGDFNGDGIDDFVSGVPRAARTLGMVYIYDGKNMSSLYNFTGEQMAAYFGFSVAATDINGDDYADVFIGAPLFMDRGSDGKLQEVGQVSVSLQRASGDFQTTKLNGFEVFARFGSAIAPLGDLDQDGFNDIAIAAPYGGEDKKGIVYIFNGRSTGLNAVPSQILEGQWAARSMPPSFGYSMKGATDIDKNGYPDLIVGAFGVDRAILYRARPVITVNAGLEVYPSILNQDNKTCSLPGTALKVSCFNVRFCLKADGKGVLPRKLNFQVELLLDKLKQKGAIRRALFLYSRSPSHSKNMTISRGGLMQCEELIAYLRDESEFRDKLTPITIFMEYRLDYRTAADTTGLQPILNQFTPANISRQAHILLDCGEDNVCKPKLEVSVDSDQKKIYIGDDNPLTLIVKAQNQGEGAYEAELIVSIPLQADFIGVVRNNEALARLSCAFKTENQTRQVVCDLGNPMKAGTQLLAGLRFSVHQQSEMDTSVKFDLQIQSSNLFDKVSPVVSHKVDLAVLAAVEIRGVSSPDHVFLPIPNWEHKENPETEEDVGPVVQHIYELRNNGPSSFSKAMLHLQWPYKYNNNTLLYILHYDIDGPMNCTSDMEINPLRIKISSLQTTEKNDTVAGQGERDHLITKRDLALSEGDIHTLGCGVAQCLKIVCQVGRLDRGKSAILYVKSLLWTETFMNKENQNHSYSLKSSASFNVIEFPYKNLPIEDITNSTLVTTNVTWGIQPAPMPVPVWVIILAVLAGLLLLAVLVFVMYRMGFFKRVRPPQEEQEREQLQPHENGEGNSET
Chain of αVβ3 integrin (P05106 27-788, chain 2 of 2, further chain): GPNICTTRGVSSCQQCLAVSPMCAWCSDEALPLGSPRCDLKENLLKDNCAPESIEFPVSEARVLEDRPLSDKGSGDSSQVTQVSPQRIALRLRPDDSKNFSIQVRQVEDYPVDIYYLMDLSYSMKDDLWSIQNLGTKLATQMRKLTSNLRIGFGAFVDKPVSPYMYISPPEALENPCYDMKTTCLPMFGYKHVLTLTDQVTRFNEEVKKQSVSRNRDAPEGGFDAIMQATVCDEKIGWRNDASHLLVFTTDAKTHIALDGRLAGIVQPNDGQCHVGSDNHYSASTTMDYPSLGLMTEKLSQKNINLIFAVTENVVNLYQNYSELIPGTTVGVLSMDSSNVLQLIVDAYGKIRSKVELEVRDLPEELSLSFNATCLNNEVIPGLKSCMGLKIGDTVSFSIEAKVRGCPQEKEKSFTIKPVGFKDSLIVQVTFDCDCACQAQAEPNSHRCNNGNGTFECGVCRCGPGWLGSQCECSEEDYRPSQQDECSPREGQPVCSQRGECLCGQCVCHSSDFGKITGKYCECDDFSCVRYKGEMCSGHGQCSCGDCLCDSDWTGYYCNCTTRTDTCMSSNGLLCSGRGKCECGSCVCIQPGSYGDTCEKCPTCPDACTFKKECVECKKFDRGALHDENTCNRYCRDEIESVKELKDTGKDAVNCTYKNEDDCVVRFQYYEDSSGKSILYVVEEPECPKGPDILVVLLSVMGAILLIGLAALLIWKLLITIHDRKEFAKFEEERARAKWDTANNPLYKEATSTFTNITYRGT

vitronectin sequence with the single arginine at position 374 changed to alanine (peptide)
decrease in binding: 70%
